# Measurements published in PMC8989918, “SH3-domain mutations selectively disrupt Csk homodimerization or PTPN22 binding” (Scientific Reports, 2022).
# B1: purified recombinant Csk WT (natural protein, mouse, UniProt P41241 1-450, looked up)
# chain: MSAIQAAWPSGTECIAKYNFHGTAEQDLPFCKGDVLTIVAVTKDPNWYKAKNKVGREGIIPANYVQKREGVKAGTKLSLMPWFHGKITREQAERLLYPPETGLFLVRESTNYPGDYTLCVSCEGKVEHYRIMYHASKLSIDEEVYFENLMQLVEHYTTDADGLCTRLIKPKVMEGTVAAQDEFYRSGWALNMKELKLLQTIGKGEFGDVMLGDYRGNKVAVKCIKNDATAQAFLAEASVMTQLRHSNLVQLLGVIVEEKGGLYIVTEYMAKGSLVDYLRSRGRSVLGGDCLLKFSLDVCEAMEYLEGNNFVHRDLAARNVLVSEDNVAKVSDFGLTKEASSTQDTGKLPVKWTAPEALREKKFSTKSDVWSFGILLWEIYSFGRVPYPRIPLKDVVPRVEKGYKMDAPDGCPPAVYEVMKNCWHLDAATRPTFLQLREQLEHIKTHELHL
# notes: Csk, tyrosine-protein kinase, mouse, full length (50.6 kDa), from pGEX-6P-3; also called WT Csk; full-length Csk; source: E. coli BL21(DE3), purified (GST Gravitrap, PreScission cleavage, HiTrap Q, Superdex 200); not shown: GST, N-terminal, cleaved
# Target: the molecule itself
# Assay: SEC; 1 ml (20 mg, 400 µM) purified Csk loaded onto a HiLoad 16/60 Superdex 200 column; apparent molecular weight from partition coefficients of standard proteins
protein,measurement,value
B1,binding result,binds
